From US20260274955A1 (JANUX THERAPEUTICS, published 2026)

The binders below were run against T1, Anti-CD28 Fab (SEQ ID NOs: 202, 203) (assay: phage ELISA on captured biotinylated Fab;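 note: wells preblocked with or without CD28 antigen, then clonal phage supernatant added briefly, washed, and bound phage read out by ELISA using HRP-linked anti-M13 antibody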).
T1 construct: biotinylated and captured on neutravidin coated plates in the phage ELISA
T1 sequence (VH, as listed by the source, chain 1 of 2): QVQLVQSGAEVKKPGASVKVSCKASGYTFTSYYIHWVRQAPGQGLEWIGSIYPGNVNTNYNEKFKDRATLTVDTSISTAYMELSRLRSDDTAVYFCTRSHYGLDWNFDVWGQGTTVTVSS
T1 sequence (VL, as listed by the source, chain 2 of 2): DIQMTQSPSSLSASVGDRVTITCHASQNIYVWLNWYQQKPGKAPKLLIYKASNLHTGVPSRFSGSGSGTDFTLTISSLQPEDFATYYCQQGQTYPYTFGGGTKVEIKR
Procedure: (§1) Clonal phage were harvested as crude supernatants and screened via standard ELISAs. […] Prior to the addition of clonal phage, wells were incubated with blocking buffer and CD28 antigen or blocking buffer alone. Without washing or aspirating, clonal phage supernatants were then added to the wells and incubated for a short time. Wells were then washed followed by detection of bound phage using a horse radish conjugated anti-M13 antibody.

Row | Binder | Anti-CD28 Fab signal
1 | YCDGHAPEYMLKCL [Phage-151] | 2.2
2 | YCDGHAPDYMLKCL [Phage-152] | 2.2
3 | YCDGHKAEYMDKCL [Phage-150] | 2.2

Each binder was assayed against T2, anti-CD28 Fab (SEQ ID NOs: 202, 203) (assay: phage binding ELISA on captured biotinylated Fab;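 note: clonal phage supernatants added to wells preincubated with CD28 antigen or blocking buffer only, bound phage detected by ELISA with horseradish-conjugated anti-M13 antibody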).
T2 construct: biotinylated and captured on neutravidin coated plates in the phage ELISA
T2 sequence (VH, as listed by the source, chain 1 of 2): as the sequence (VH, as listed by the source, chain 1 of 2) above
T2 sequence (VL, as listed by the source, chain 2 of 2): as the sequence (VL, as listed by the source, chain 2 of 2) above
Procedure: After panning, phage infected bacteria were plated out and colonies picked into 96 well blocks. Clonal phage was then amplified and separated from bacterial cells via centrifugation.
Clonal phage were harvested as crude supernatants and screened via standard ELISAs. […] Prior to the addition of clonal phage, wells were incubated with blocking buffer and CD28 antigen or blocking buffer alone. Without washing or aspirating, clonal phage supernatants were then added to the wells and incubated for a short time. Wells were then washed followed by detection of bound phage using a horse radish conjugated anti-M13 antibody. Clonal phage of interest were then sent for sequence analysis.

Row | Binder | Anti-CD28 Fab (SEQ ID NOs: 202, 203) signal
4 | MCAEFFNYPWPLCL [Phage-946] | 2.11
5 | LCAEFFNYPWPLCL [Phage-975] | 1.98
6 | TCSAGATYVWPQCF [Phage-956] | 2.05
7 | TCSAGATYEWPRCL [Phage-899] | 1.84
8 | RCAAGASYPWPPCL [Phage-925] | 2.25
9 | LCEEFADYPWPMCL [Phage-965] | 2.01
10 | TCAAGAMWAWPVCL [Phage-911] | 2.32
11 | TCAAGAMWHWPVCL [Phage-962] | 2.03
12 | MCSAGAMYKWPLCL [Phage-912] | 2.32
13 | MCSAGAMYSWPLCL [Phage-918] | 2.29
14 | SCKPGVANYWPWCL [Phage-917] | 2.29
15 | TCSAGATWSWPMCL [Phage-921] | 2.26
16 | TCAAGATYAWPECL [Phage-953] | 2.08
17 | TCSAGAAYSWPACF [Phage-896] | 1.89
18 | MCSAGANYPWPWCL [Phage-979] | 1.97
19 | TCSAGAYYTWPYCF [Phage-948] | 2.09
20 | SCSAGAAYYWPWCL [Phage-901] | 1.9
21 | TCAAGANYPWPYCL [Phage-969] | 1.99
22 | TCAAGAMYTWPLCF [Phage-943] | 2.14
23 | TCSAGASWAWPWCF [Phage-961] | 2.03
24 | TCAAGAHYSWPACF [Phage-923] | 2.25

Row | Binder | Anti-CD28 Fab (SEQ ID NOs: 202, 203) signal
25 | LCAAGATYAWPLCL [Phage-945] | 2.13
26 | LCAAGASYPWPTCL [Phage-967] | 2
27 | MCAAGATYPWPLCL [Phage-970] | 1.99
28 | YCAAGATYPWPLCL [Phage-952] | 2.08
29 | LCAAGFKYPWPLCL [Phage-964] | 2.02
30 | TCSAGATWTWPQCL [Phage-944] | 2.14
31 | SCAAVFSYSWPMCF [Phage-973] | 1.99
32 | TCAAGATYEWPACL [Phage-947] | 2.09
33 | TCAAGATYKWPACL [Phage-958] | 2.05
34 | TCAAGASYAWPWCL [Phage-960] | 2.03
35 | TCAAGATYSWPMCF [Phage-966] | 2
36 | TCAAGATYSWPWCF [Phage-971] | 1.99
37 | TCAAGATYPWPSCL [Phage-924] | 2.25
38 | GCAAGATYPWPSCL [Phage-957] | 2.05
39 | QCSAGAAWPWPFCL [Phage-976] | 1.97
40 | SCAAGAMWPWPVCV [Phage-915] | 2.29
41 | TCAAGATYLWPTCL [Phage-903] | 1.68
42 | TCSAGAAYPWPLCL [Phage-895] | 2.36
43 | TCAAGAHYPWPACL [Phage-904] | 1.92
44 | HCAAGAHYPWPACL [Phage-968] | 2
45 | SCSAGAMYTWPTCL [Phage-950] | 2.09

Row | Binder | Anti-CD28 Fab (SEQ ID NOs: 202, 203) signal
46 | TCAAGAHYTWPECF [Phage-972] | 1.99
47 | TCSAGFHYEWPRCL [Phage-963] | 2.02
48 | LCSAGAMYPWPTCL [Phage-922] | 2.25
49 | LCSAGAMWPWPTCL [Phage-908] | 2.39
50 | MCSAGAMYPWPTCL [Phage-959] | 2.04
51 | LCSAGAMYSWPTCL [Phage-909] | 2.39
52 | MCAAGANYPWPQCL [Phage-920] | 2.28
53 | SCSAGAHYPWPQCF [Phage-898] | 1.16
54 | TCSAGATYEWPWCM [Phage-978] | 1.97
55 | TCAAGAHYLWPWCM [Phage-955] | 2.05
56 | QCAAGASYPWPMCL [Phage-951] | 2.08
57 | TCSAGATYAWPFCL [Phage-913] | 2.31
58 | WCKPGAPYKWPPCF [Phage-942] | 2.14
59 | TCSAGAHYPWPICL [Phage-900] | 1.78
60 | SCAAGATYSWPMCL [Phage-974] | 1.99
61 | MCAAGAHYTWPTCL [Phage-977] | 1.97
62 | TCSAGATWAWPLCF [Phage-902] | 2.31
63 | TCAAVFSYGWPECF [Phage-949] | 2.09
64 | TCKAGATYLWPFCL [Phage-926] | 2.23

What follows are binders tested against T1, Anti-CD28 Fab (SEQ ID NOs: 202, 203) (assay: phage ELISA on captured Fab, wells pre-incubated with CD28 antigen (competitor: CD28);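 note: bound clonal phage detected with an HRP-linked anti-M13 antibody, compared against wells that received blocking buffer alone without CD28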).
Procedure: as §1

Row | Binder | Anti-CD28 Fab signal in the presence of CD28
65 | YCDGHAPEYMLKCL [Phage-151] | 0.07
66 | YCDGHAPDYMLKCL [Phage-152] | 0.09
67 | YCDGHKAEYMDKCL [Phage-150] | 0.07
